Biological target: T1, 6xHis-tagged TssI2 (purified) (Vibrio fluvialis 85003, UniProt A0A1W6EUI3 1-1012)
T1 sequence: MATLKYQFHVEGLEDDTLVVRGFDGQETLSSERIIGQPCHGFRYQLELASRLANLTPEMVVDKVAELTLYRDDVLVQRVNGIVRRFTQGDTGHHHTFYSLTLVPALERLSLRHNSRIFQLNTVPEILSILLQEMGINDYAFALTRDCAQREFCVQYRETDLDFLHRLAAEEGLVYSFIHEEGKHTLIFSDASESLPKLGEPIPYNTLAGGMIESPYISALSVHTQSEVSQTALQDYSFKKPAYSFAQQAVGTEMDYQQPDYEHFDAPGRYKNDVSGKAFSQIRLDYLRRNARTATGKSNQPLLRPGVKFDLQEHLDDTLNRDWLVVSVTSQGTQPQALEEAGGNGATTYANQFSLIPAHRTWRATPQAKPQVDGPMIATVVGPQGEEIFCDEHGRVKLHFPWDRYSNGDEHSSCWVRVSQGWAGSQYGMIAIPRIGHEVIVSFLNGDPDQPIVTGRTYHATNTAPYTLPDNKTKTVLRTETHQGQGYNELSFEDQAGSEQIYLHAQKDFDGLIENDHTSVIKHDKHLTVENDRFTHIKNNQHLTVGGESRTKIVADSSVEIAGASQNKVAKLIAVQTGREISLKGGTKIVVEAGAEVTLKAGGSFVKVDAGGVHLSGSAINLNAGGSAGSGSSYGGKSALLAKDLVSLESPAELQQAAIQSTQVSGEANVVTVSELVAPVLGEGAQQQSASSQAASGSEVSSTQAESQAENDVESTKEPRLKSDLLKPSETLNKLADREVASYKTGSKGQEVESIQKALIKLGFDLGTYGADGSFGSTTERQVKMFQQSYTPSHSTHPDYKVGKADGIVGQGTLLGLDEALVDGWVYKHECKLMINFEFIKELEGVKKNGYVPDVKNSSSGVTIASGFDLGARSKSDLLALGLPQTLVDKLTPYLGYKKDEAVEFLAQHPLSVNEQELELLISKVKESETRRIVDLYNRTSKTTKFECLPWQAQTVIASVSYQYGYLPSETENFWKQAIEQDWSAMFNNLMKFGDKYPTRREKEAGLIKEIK
Experiment: ITC

B1: 6xHis-tagged TsiI2^19-127 (purified) (domain or fragment)
chain: FPTNEVYAYLDITSFNSSLIQKAARGQKHFSDLKIPNPVISKDTILIESEYWKYEMQFVKEDDSGIHVCFVDKAKWGTYDTQTPMIIRKYADEYVAIKMNSDVCEDFAK
Kd: 1.07 nM
